Positions count from the first letter of the chain named.

The chains are these.
B1: KB_A12_cMET_E11 (scFv, V domains shown)
VH: EVQLVESGGGLVRPGGSLRLSCAASGFTFSSYAMSWVRQAPGKGLEWVSAISGSGGSTYYADSVKGRFTISRDNTKNSLYLQMTSLRADDTAFYYCVKDFGPGYGTGWFDYWGPGTLVTVSS
VL: AVNWYQQLPGKAPKLLIYAAGRCAKKSGTGRCKQDSDCLAGCVCGPNGFCGANSGVSDRFSAAKSGTSASLAINGLRSEDEADYYCAAWDDSLNGYVFGTGTKLTVLG
B2: KB_A12_cMET_F10 (scFv, V domains shown)
VH: B1 VH
VL: AVNWYQQLPGKAPKLLIYAAGRCRSLMSGTGRCKQDSDCLAGCVCGPNGFCGANSGVSDRFSAAKSGTSASLAINGLRSEDEADYYCAAWDDSLNGYVFGTGTKLTVLG
B3: KB_A12_cMET_E12 (scFv, V domains shown)
VH: B1 VH
VL: B1 VL with K26R
B4: KB_A12_cMET_H03 (scFv, V domains shown)
VH: B1 VH
VL: B1 VL with A24R, K25G, K26M, S27T, T29V
B5: KB_A12_cMET_H04 (scFv, V domains shown)
VH: B1 VH
VL: B1 VL with A24P, K25Q, K26M, S27T
B6: KB_A12_cMET_E02 (scFv, V domains shown)
VH: B1 VH
VL: B1 VL with A24R, T29A, G30N
B7: KB_A12_cMET_F12 (scFv, V domains shown)
VH: B1 VH
VL: B1 VL with A24K, K25A, K26Q, T29S
B8: KB_A12_cMET_F06 (scFv, V domains shown)
VH: B1 VH
VL: B1 VL with A24P, K25H, K26Q, S27T
B9: KB_A12_cMET_E01 (scFv, V domains shown)
VH: B1 VH
VL: B1 VL with A24N, K25L, K26T
B10: KB_A12_cMET_F05 (scFv, V domains shown)
VH: B1 VH
VL: B2 VL with R24K, S25R, T30A
B11: KB_A12_cMET_E04 (scFv, V domains shown)
VH: B1 VH
VL: B1 VL with A24G, K25H, K26L
B12: KB_A12_cMET_H02 (scFv, V domains shown)
VH: B1 VH
VL: B1 VL with K26R, S27T
B13: KB_A12_cMET_G06 (scFv, V domains shown)
VH: B1 VH
VL: B1 VL with A24N, K26S, S27G
B14: KB_A12_cMET_G08 (scFv, V domains shown)
VH: B1 VH
VL: B1 VL with K25R, K26L, T29S
B15: KB_A12_cMET_G01 (scFv, V domains shown)
VH: B1 VH
VL: B1 VL with A24Q, K25R, K26Q
B16: KB_A12_cMET_H08 (scFv, V domains shown)
VH: B1 VH
VL: B2 VL with R24Q, S25T, L26G, M27R
B17: KB_A12_cMET_H01 (scFv, V domains shown)
VH: B1 VH
VL: B1 VL with A24H, K25R, K26M
B18: KB_A12_cMET_E07 (scFv, V domains shown)
VH: B1 VH
VL: B2 VL with R24P, S25K, L26R, M27H, S28T
B19: KB_A12_cMET_E05 (scFv, V domains shown)
VH: B1 VH
VL: B1 VL with A24D, K25R, S27A
B20: KB_A12_cMET_G10 (scFv, V domains shown)
VH: B1 VH
VL: B1 VL with A24E, K26H
B21: KB_A12_cMET_G07 (scFv, V domains shown)
VH: B1 VH
VL: B1 VL with A24R, K25A, K26S
B22: KB_A12_cMET_H05 (scFv, V domains shown)
VH: B1 VH
VL: B1 VL with A24N, K25R, K26A, T29A
B23: KB_A12_cMET_F02 (scFv, V domains shown)
VH: B1 VH
VL: B1 VL with A24G, K25R, K26A

In the assay the target is human cMET (human, UniProt P08581 25-932). Description: phage TRF on cMET.
human cMET, sequence (P08581 25-932 limits assumed): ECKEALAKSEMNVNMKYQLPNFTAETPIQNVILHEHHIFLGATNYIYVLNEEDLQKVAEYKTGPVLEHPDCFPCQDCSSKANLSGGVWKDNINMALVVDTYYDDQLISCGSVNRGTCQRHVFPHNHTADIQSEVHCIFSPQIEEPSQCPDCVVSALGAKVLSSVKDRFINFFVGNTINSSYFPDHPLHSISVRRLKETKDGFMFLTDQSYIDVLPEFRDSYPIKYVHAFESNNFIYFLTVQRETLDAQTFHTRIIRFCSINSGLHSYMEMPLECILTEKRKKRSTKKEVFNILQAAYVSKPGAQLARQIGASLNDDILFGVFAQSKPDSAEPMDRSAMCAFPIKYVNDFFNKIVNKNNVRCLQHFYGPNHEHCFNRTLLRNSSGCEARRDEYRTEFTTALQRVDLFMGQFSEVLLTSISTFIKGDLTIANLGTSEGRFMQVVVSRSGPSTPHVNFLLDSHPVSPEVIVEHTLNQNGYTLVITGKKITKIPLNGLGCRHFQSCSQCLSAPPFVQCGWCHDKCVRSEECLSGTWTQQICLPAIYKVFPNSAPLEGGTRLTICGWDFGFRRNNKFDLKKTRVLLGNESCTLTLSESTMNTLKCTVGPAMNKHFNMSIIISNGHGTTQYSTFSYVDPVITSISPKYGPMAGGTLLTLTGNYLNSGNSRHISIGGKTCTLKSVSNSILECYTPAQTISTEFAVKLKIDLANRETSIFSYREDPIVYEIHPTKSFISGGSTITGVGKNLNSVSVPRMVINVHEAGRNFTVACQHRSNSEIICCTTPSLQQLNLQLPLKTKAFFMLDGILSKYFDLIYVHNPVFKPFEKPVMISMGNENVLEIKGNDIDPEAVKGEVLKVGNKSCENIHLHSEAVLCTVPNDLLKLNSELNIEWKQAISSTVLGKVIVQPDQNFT
B1 displayed a TRF signal of 158000. The result for B2 reads 51300; that for B3, 95900.

For the molecule B4, the TRF signal worked out at 54200.

In turn, B5 had a TRF signal of 113000. The result for B6 reads 9480; that for B7, 119000; that for B8, 56200. The result for B9 reads 22400; that for B10, 59600; that for B11, 41300.

Regarding B12, the TRF signal amounted to 35400. The result for B13 reads 62100.

On to B14, for which the TRF signal amounted to 27900.

B15 had a TRF signal of 98900. Molecule B16 had a TRF signal of 6730. In turn, B17 had a TRF signal of 132000. On to B18, for which the TRF signal worked out at 95300. The result for B19 reads 116000. The result for B20 reads 64800; that for B21, 58000. B22 displayed a TRF signal of 153000. The result for B23 reads 98500.
